This is an account of results in PMC4417512, “Role of N-linked glycosylation in the secretion and enzymatic properties of Rhizopus chinensis lipase expressed in Pichia pastoris” (Microbial Cell Factories, 2015).

The test system of data set [1] is CCCCCCCCCCCCCCCC(=O)Oc1ccc([N+](=O)[O-])cc1. Description: purified protein. It is filed as biochemical, Rhizopus microsporus. The settings on record: pH 8.0, 40°C, emulsified substrate, Triton X-100 and gum arabic in the standard assay.
The test system is the same in data set [2]. Description: purified protein. The following applies: pH 8.0, 40°C, emulsified substrate, Triton X-100 and gum arabic in the standard assay.

Like-named read-outs stand apart in the source and are kept apart here.

What is called Km is the concentration of substrate that gives half-maximal velocity. For orientation: kcat means the maximal rate divided by the concentration of active sites. One may read the kcat/Km as the turnover number divided by the Michaelis constant.

Consider “Rhizopus chinensis lipase (RCL; proRCLCNQ): N14Q (proRCLCN14Q)”, for which, under “N-glycosylation at N14”, the enzymatic_activity entry is recorded as “decreases, kcat 60.70 to 24.82 s-1; Km 0.20 to 2.01 mM; kcat/Km 2.92*10^5 to 1.22*10^5 M-1 s-1”; the expression_or_secretion result is on record as “no change”; the stability_or_folding entry is on record as “decreases”; the structure_or_conformation result is reported as “no change”.

Regarding “Rhizopus chinensis lipase (RCL; proRCLCNQ): N14Q (proRCLCN14Q), 90% (v/v) organic solvents, 24 h”, the stability_or_folding result (N-glycosylation at N14) is reported as “decreases, relative activity e.g. isooctane 78 ± 3.5% to 70 ± 3.0%; DMSO 58 ± 4.0% to 51 ± 4.2%”.

As for “Rhizopus chinensis lipase (RCL; proRCLCNQ): N48Q (proRCLCN48Q)”, for the setting “N-glycosylation at N48”, the enzymatic_activity entry is “no change, kcat 60.70 vs 61.33 s-1; Km 0.20 vs 0.19 mM; kcat/Km 2.92*10^5 vs 3.11*10^5 M-1 s-1”; the expression_or_secretion result was “no change”; the stability_or_folding result was “no change, about 70% residual activity after 1 h at 50 °C for both”.

“Rhizopus chinensis lipase (RCL; proRCLCNQ): N60Q (proRCLCN60Q)”: the expression_or_secretion entry (N-glycosylation at N60) is reported as “abolishes”.

As for “Rhizopus chinensis lipase (RCL; proRCLCNQ): N60Q (proRCLCN60Q), mRNA level by RT-PCR”, under “N-glycosylation at N60”, the other entry is reported as “no change”.

As for “proRCLCNQ (Rhizopus microsporus var. chinensis; K92N/N40Q/R93Q)”, the Km in data set [1] (printed Km inconsistent with printed kcat/Km (tenfold), possible misprint) turned out to be 2010 ± 120 µM.

Regarding “proRCLCNQ (Rhizopus microsporus var. chinensis; K92N/N74Q/R93Q)”, in data set [1], the Km is 190 ± 20 µM, the kcat was determined as 61.3 ± 2.5 s⁻¹ and the specificity constant (kcat/Km) was 311000 ± 61000 M⁻¹ s⁻¹.

Take “proRCLCNQ (Rhizopus microsporus var. chinensis; K92N/R93Q)”: in data set [1], the Km stood at 200 ± 40 µM, the kcat stood at 60.7 ± 2.2 s⁻¹ and the kcat/Km was 292000 ± 55000 M⁻¹ s⁻¹.

As to “r27RCLC (Rhizopus microsporus var. chinensis)”, in data set [2], the Km is 340 ± 100 µM, the kcat stood at 122 ± 3.1 s⁻¹ and the kcat/Km came to 356000 ± 81000 M⁻¹ s⁻¹.
